Experiments:
[1] = target: T1, GPNMB (CG56972) as expressed by human cell lines (human, UniProt Q14956 23-492); assay: FACS on M14 cells
T1 construct: Endogenous or transfected full-length protein on cells (FACS, killing assays) or in cell lysates (immunoprecipitation, blot); also called native GPNMB protein
T1 sequence: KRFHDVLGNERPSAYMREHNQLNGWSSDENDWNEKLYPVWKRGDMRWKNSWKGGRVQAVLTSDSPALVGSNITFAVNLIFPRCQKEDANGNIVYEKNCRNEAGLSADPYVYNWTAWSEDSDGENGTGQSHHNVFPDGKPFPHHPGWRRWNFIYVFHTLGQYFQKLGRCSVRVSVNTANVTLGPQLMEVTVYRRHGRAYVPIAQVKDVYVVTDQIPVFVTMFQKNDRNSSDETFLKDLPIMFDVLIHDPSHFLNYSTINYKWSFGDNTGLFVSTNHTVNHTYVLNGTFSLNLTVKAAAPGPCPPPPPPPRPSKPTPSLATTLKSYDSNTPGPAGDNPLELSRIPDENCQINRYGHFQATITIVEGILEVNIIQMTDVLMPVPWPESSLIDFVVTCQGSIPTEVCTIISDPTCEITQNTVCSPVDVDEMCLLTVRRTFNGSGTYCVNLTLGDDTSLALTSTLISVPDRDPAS

[2] = target: T1, GPNMB (CG56972) as expressed by human …; assay: cell-based or functional assay
[3] = target: T1, GPNMB (CG56972) as expressed by human …; assay: FACS on A2058 cells
[4] = target: T1, GPNMB (CG56972) as expressed by human …; assay: FACS on SK-Mel 2 cells
[5] = target: T1, GPNMB (CG56972) as expressed by human …; assay: FACS on SK-Mel 5 cells
[6] = target: T1, GPNMB (CG56972) as expressed by human …; assay: FACS on RPMI-7951 cells
[7] = target: T1, GPNMB (CG56972) as expressed by human …; assay: FACS on SK-Mel 24 cells
[8] = target: T2, Recombinant human GPNMB extra-cellular domain (ECD) with a C-terminus V5-HIS tag (human, UniProt Q14956 23-492); assay: Biacore, mAb captured on protein A
T2 construct: Expressed in HEK293; also called GPNMB-V5His; GPNMB-soluble
T2 sequence: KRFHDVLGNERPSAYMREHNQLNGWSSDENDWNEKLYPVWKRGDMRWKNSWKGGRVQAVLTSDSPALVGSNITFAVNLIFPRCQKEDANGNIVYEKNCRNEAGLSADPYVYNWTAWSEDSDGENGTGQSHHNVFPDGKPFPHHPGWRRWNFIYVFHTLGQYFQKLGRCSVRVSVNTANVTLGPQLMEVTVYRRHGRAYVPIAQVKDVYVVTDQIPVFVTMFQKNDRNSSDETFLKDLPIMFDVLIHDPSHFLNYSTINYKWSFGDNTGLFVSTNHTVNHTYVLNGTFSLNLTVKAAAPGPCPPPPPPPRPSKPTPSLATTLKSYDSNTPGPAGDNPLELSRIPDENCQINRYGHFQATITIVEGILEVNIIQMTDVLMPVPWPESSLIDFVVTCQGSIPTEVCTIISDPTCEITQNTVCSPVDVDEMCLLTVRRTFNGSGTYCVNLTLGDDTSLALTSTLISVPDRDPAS
Procedure: Certain Hybridoma cell supernatants (29) were analyzed for binding to GPNMB by BiaCore® 2000 biosensor equipped with a research-grade CM5 sensor chip. A 1:25 dilution of cell supernatant was passed over a protein A surface for 5 min followed by washing the surface for 10 mins. […] GPNMB binding data for each mAb was normalized for the amount of mAb captured on each surface. Normalized, drift corrected responses were also measured. The sensorgrams were fit to a simple 1:1 kinetic model.

[9] = target: T1, GPNMB (CG56972) as expressed by human …; assay: FACS on DEL cells, antibody 1 ug/mL
Procedure: (§1) Lymphoma or leukemia derived cells were washed twice with ice-cold FACS buffer and resuspended at 1 million cells per assay tube. […] Cells were then washed 2-3 times and resuspended in 1 mL of ice-cold FACS buffer. R-PE-conjugated goat anti-human antibody at 1:100 dilution was added and cells were incubated on ice for 30 min. Cells were washed 3 times with 1 mL of ice-cold FACS buffer, fixed with 0.5-1 mL of 1% formaldehyde in PBS and analyzed by Flow Cytometry.

[10] = target: T1, GPNMB (CG56972) as expressed by human …; assay: FACS on U-251 cells, CR011 10 ug/mL
Procedure: (§2) Quantitative analysis of CG56972 expression on the surface of cell lines was determined by flow cytometry (FACS). […] Cells were fixed in 1% paraformaldehyde/PBS and examined on a Becton Dickinson FACSCalibur flow cytometer. Data analysis was performed with Becton Dickinson Cell Quest software version 3.3 and the geometric mean fluorescence intensity ratio (GMR) was determined for each cell type.

[11] = target: T1, GPNMB (CG56972) as expressed by human …; assay: FACS on U87MG cells, CR011 10 ug/mL
Procedure: as §2

[12] = target: T1, GPNMB (CG56972) as expressed by human …; assay: FACS on K562 cells, antibody 1 ug/mL
Procedure: as §1

[13] = target: T1, GPNMB (CG56972) as expressed by human …; assay: FACS on ML-2 cells, antibody 1 ug/mL
Procedure: as §1

[14] = target: T1, GPNMB (CG56972) as expressed by human …; assay: FACS on U937 cells, antibody 1 ug/mL
Procedure: as §1

[15] = target: T1, GPNMB (CG56972) as expressed by human …; assay: FACS on SF-268 cells, CR011 10 ug/mL
Procedure: as §2
(§3) Geometric Mean ratios (GMR) were determined by flow cytometric analysis.

[16] = target: T1, GPNMB (CG56972) as expressed by human …; assay: FACS on SF-539 cells, CR011 10 ug/mL
Procedure: as §2, §3

[17] = target: T1, GPNMB (CG56972) as expressed by human …; assay: FACS on SNB-78 cells, CR011 10 ug/mL
Procedure: as §2

[18] = target: T1, GPNMB (CG56972) as expressed by human …; assay: FACS on EOL-1 cells, antibody 1 ug/mL
[19] = target: T1, GPNMB (CG56972) as expressed by human …; assay: FACS on THP-1 cells, antibody 1 ug/mL
Procedure: as §1

[20] = target: T1, GPNMB (CG56972) as expressed by human …; assay: FACS on D534-MG cells, CR011 10 ug/mL
Procedure: as §2

[21] = target: T1, GPNMB (CG56972) as expressed by human …; assay: FACS on HUT-78 cells, antibody 1 ug/mL
[22] = target: T1, GPNMB (CG56972) as expressed by human …; assay: FACS on MOLT-4 cells, antibody 1 ug/mL
Procedure: as §1

[23] = target: T1, GPNMB (CG56972) as expressed by human …; assay: FACS on CCRF-CEM cells, antibody 1 ug/mL
Procedure: as §1

[24] = target: T1, GPNMB (CG56972) as expressed by human …; assay: FACS on XF-498, U-118-MG, SNB-78 and SF-539 cells
Procedure: as §2

B1: CR011 mAb 1.15.1 (IgG2) (antibody)
heavy: QVQLQESGPGLVKPSQTLSLTCTVSGGSISSFNYYWSWIRHHPGKGLEWIGYIYYSGSTYSNPSLKSRVTISVDTSKNQFSLTLSSVTAADTAVYYCARGYNWNYFDYWGQGTLVTVSSASTKGPSVFPLAPCSRSTSESTAALGCLVKDYFPEPVTVSWNSGALTSGVHTFPAVLQSSGLYSLSSVVTVPSSNFGTQTYTCNVDHKPSNTKVDKTVERKCCVECPPCPAPPVAGPSVFLFPPKPKDTLMISRTPEVTCVVVDVSHEDPEVQFNWYVDGVEVHNAKTKPREEQFNSTFRVVSVLTVVHQDWLNGKEYKCKVSNKGLPAPIEKTISKTKGQPREPQVYTLPPSREEMTKNQVSLTCLVKGFYPSDIAVEWESNGQPENNYKTTPPMLDSDGSFFLYSKLTVDKSRWQQGNVFSCSVMHEALHNHYTQKSLSLSPGK
VL: not shown
notes: also called CR011.1.15.1; CR011 IgG2
- Geo Mean Ratio (relative to isotype) [1]: 16.1 ratio
- killing of UACC-62 cells with saporin-conjugated secondary antibody (colony count) [2]: > 70%
- Geo Mean Ratio (relative to isotype) [3]: 4.1 ratio
- Geo Mean Ratio (relative to isotype) [4]: 16.5 ratio
- Geo Mean Ratio (relative to isotype) [5]: 5.7 ratio
- Geo Mean Ratio (relative to isotype) [6]: 6 ratio
- Geo Mean Ratio (relative to isotype) [7]: 1.9 ratio
- Kd [8]: 52 nM
- koff [8]: 0.000855 s⁻¹
- kon [8]: 16500 M⁻¹ s⁻¹
- Geo Mean Ratio [9]: 7.9 ratio
- CR011 Fold Shift (GMR) [10]: 1.9 fold
- CR011 Fold Shift (GMR) [11]: 1.5 fold
- Geo Mean Ratio [12]: 2.8 ratio
- Geo Mean Ratio [13]: 2.1 ratio
- Geo Mean Ratio [14]: 17.3 ratio
- CR011 Fold Shift (GMR) [15]: 1.5 fold
- CR011 Fold Shift (GMR) [16]: 5.4 fold
- CR011 Fold Shift (GMR) [17]: 8.6 fold
- Geo Mean Ratio [18]: 1 ratio
- Geo Mean Ratio [19]: 6.1 ratio
- CR011 Fold Shift (GMR) [20]: 2.3 fold
- Geo Mean Ratio [21]: 1.5 ratio
- Geo Mean Ratio [22]: 6.2 ratio
- Geo Mean Ratio [23]: 10.9 ratio
- surface staining, fold above isotype control mAb background [24]: ≥ 1.5 fold

— patent US20130244255A1 (published 2013)
